Results: paper PMC2809015 (Biochemistry, 2009)
“And” between values parts separate entries of the source, which are not always exact repeats. Identical values can stand only once. Like-named read-outs stand apart in the source and are kept apart here.

T1: HscA, Hsp70-class molecular chaperone of the isc operon (E. coli, UniProt P0A6Z1 1-616)
T1 sequence (looked up): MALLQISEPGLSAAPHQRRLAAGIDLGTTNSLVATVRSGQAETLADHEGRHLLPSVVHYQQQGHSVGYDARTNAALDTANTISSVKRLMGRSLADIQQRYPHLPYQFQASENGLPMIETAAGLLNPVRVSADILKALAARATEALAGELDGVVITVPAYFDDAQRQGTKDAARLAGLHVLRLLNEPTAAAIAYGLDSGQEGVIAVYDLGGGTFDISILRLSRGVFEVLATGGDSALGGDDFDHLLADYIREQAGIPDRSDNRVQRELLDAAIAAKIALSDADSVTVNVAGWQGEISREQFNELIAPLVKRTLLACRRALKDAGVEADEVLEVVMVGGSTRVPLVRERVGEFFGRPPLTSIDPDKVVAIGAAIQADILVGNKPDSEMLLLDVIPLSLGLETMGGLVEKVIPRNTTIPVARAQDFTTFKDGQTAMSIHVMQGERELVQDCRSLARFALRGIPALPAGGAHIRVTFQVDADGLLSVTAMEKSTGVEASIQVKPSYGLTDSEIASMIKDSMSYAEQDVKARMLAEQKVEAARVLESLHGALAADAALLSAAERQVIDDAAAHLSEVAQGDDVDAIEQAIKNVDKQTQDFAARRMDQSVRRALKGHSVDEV

B1: BioB containing one [2Fe-2S]2+ cluster per monomer (enzyme, E. coli, UniProt P12996 1-346, looked up)
chain: MAHRPRWTLSQVTELFEKPLLDLLFEAQQVHRQHFDPRQVQVSTLLSIKTGACPEDCKYCPQSSRYKTGLEAERLMEVEQVLESARKAKAAGSTRFCMGAAWKNPHERDMPYLEQMVQGVKAMGLEACMTLGTLSESQAQRLANAGLDYYNHNLDTSPEFYGNIITTRTYQERLDTLEKVRDAGIKVCSGGIVGLGETVKDRAGLLLQLANLPTPPESVPINMLVKVKGTPLADNDDVDAFDFIRTIAVARIMMPTSYVRLSAGREQMNEQTQAMCFMAGANSIFYGCKLLTTPNPEEDKDLQLFRKLGLNPQQTAVLAGDNEQQQRLEQALMTPDTDEYYNAAAL
B2: BioB containing both [2Fe-2S]2+ and [4Fe-4S]2+ clusters (enzyme, E. coli, UniProt P12996 1-346, looked up)
chain: B1 chain
B3: BioB apoprotein (His6-biotin synthase lacking both iron-sulfur clusters) (enzyme, E. coli, UniProt P12996 1-346, looked up)
chain: B1 chain
B4: dethiobiotin synthase (BioD) (enzyme)
chain: SKRYFVTGTDTEVGKTVASCALLQAAKAAGYRTAGYKPVASGSEKTPEGLRNSDALALQRNSSLQLDYATVNPYTFAEPTSPHIISAQEGRPIESLVMSAGLRALEQQADWVLVEGAGGWFTPLSDTFTFADWVTQEQLPVILVVGVKLGCINHAMLTAQVIQHAGLTLAGWVANDVTPPGKRHAEYMTTLTRMIPAPLLGEIPWLAENPENAATGKYINLALL
B5: HscA substrate binding domain (SBD-HscA, residues 389-616) (domain or fragment, E. coli, UniProt P0A6Z1 389-616, looked up)
chain: LDVIPLSLGLETMGGLVEKVIPRNTTIPVARAQDFTTFKDGQTAMSIHVMQGERELVQDCRSLARFALRGIPALPAGGAHIRVTFQVDADGLLSVTAMEKSTGVEASIQVKPSYGLTDSEIASMIKDSMSYAEQDVKARMLAEQKVEAARVLESLHGALAADAALLSAAERQVIDDAAAHLSEVAQGDDVDAIEQAIKNVDKQTQDFAARRMDQSVRRALKGHSVDEV

How the values were obtained:
[1] = biological target: B5; experiment: molecular weight filtration assay
[2] = biological target: T1, HscA, Hsp70-class molecular chaperone …; experiment: molecular weight filtration assay
[3] = biological target: T1, HscA, Hsp70-class molecular chaperone …; experiment: AUC
[4] = biological target: T1, HscA, Hsp70-class molecular chaperone …; experiment: molecular weight filtration assay; remark: listed apart in the source
[5] = biological target: the molecule itself; experiment: AUC
[6] = biological target: T1, HscA, Hsp70-class molecular chaperone …; experiment: molecular weight filtration assay; remark: listed apart in the source
[7] = biological target: the molecule itself; experiment: AUC; remark: listed apart in the source
[8] = biological target: T1, HscA, Hsp70-class molecular chaperone …; experiment: molecular weight filtration assay; remark: listed apart in the source
[9] = biological target: B1; experiment: molecular weight filtration assay

## B1
[1]
  stoichiometry N: 1
[2]
  stoichiometry N: ~1 HscA per BioB dimer
[3]
  Kd: 12 µM
  stoichiometry N: 1 HscA per BioB dimer and 2 HscA per BioB dimer
[4]
  Kd: 5.5 µM and 5.6 µM
[5]
  stoichiometry N: 2
[6]
  Kd: ~5 µM

## B2
[2]
  stoichiometry N: ~1 HscA per BioB dimer

## B3
[2]
  stoichiometry N: 0.96 apoBioB dimer per HscA
[7]
  stoichiometry N: 2

## B4
[8]
  Kd: ≥ 1100 µM

## B5
[9]
  Kd: 0.55 ± 0.3 µM
